# Data as given in the supplement of paper PMC9170038.
# System: MS2 coat protein
# Test: apparent KD of MS2 coat protein; higher = weaker reporter binding
# Details: Eterna round: R107; input ligand: theophylline 2 mM
# Summary of the method: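 In 100 mM Tris-HCl pH 7.5 with 80 mM KCl and 4 mM MgCl2, and without or with constant ligand, SNAP-549-labelled MS2 coat protein was titrated in twofold steps from 0.7 or 1.5 nM to 3 µM. Per-step times went from 0.8–1.5 h down to 10–20 min. The RNA switches were transcribed on-chip from Illumina sequencing clusters, and apparent KD is the per-design median of normalised cluster binding-curve fits.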
row,Sequence,apparent KD of MS2 coat protein [µM]
1,AAAAUCCUACCUGAGGAUCACCCAGGUGAAGGAGCGCCCGAAAGGGCAGGUAGGUCGCACCUGAGGAUCACCCUGGUAACCUAAA [ArgEX 11 #DoubleMS2 #OpenEnded #AlternativeMS2],0.0517
2,UAUCGAGGUACAUGAGGAUCACCCAUGUAUCGAGGACCGGUACGGCCGCCACUCGAUAAUGGCGGAUCGUUAGUCCUCUUCGAUA [Tryp A Ex 4b],0.0127
3,ACAUGAGGAUCACCCAUGUAAAUAACGGAAGGAGCGUGCAAAAGCACAGGUAGGUCGCCGAUAUAAAUAUUGGGUAUUAUAUUAU [AstrosExyArgA#2],0.029
4,CCGACGAUGACUAUGGGUCAGGAGUGCGCACGAGGACCGGUACGGCCGCCACUCGAGGAGUGGGACAUGAGGAUCACCCAUGUGG [X-TryptA-MS2@65],0.0528
5,UGAGUUAGACAAAAGUCUAGCUCUGGUGAAGGAGCGUCCGAAAGGACAGGUAGGUCGCACCACCUGAGGAUCACCCAGGUUCCUA [ArgAS 14 #OpenEnded #AlternativeMS2],0.0572
6,GUGAAGUUAGUGAGCGUUAGUCAAGCCAAACGAGGACCGGUACGGCCGCCACUCGCGCAUCGACAUGAGGAUCACCCAUGUGCCG [theeternabot_exclusion_MS2_Trp_A_12],0.0177

# Same assay, conditions: Eterna round: R107; input ligand: tryptophan 2.4 mM
row,Sequence,apparent KD of MS2 coat protein [µM]
1,AGCGGCUCGAAAGAGUCGCACUCAUGUGAAGGAGCGCCCGUUAGGGCAGGUAGGUCGCACAUGAGGAUCACCCAUGUACCUUCUA [MAT - Exclusion Arginine A - Mod of Eli - D19],0.141
2,AAACAUUGCUCAGAUACCAGACAUGAGGAUCACCCAUGUACCAAGGUACCCGAAAGGAAUGUCCCUUGGCAGCUGAGCAAUGAAA [MAT - Exclusion Theophlline B - Mod of Eli - D20],0.00951
3,GUGGAGACACGAGAUACCAGUCUCUAUAACAUGAGGAUCACCCAUGUAAUGCUCCUCAGGGACCCUUGGCAGCUCAGUAUGAUGA [Exclusion - Theophylline B],0.0357
4,UGAUGGUGCUGAAGGAGCGUGUAAGAACAAGAACAUGAGGAUCACCCAUGUAUUAAUUUAACACAGGUAGGUCGCGGUGUUAUUG [11.L],0.0197
5,ACAUGAGGAUCACCCAUGUGGCGACUUGAUACCAGACCCGCACUAGUCCCUUGGCAGCAACUACGUGUGGGACACCCAUGUUAAG [lplmullin],0.016
6,AGCUCGCUUCCUCAAGCGUCAAAGACGCGUCGAGGACCGGUACGGCCGCCACUCGACCUGAGGAUCACCCGGGUCUAAGCGAGCA [TrypAX 8 #SwitchBubble #AlternativeMS2 #MS2Late #CuTurnoff],0.325
7,AUGUCGUUGAAUAUAGCGGCUUGGUGUGAUACCAGAAUGAUCUAAUUCCCUUGGCAGCAUUACAUGAGGAUCACCCAUGUUCAGG [SSTheo A #20],0.0263
8,AUUUAUUAGACGGCCGCCACUUGAAAGAGACCUCAUAAAUGGGAACAUGAGGAUCACCCAUGUAAGAGGACCGGGUCUAGUAGAU [TryptB-ms2@45],0.61
9,AAUUUUCACGGAAGGAGCGUCACGUAAUUCAUACAUGAGGAUCACCCAUGUUAGUGGUAGAGACAGGUAGGUCGCCGUUAUUUGA [JR_AAArginiB_Sub026],0.0214
10,AGACAUGAGGAUCACCCAUGUAGCAUGGAUACCAGAUGUAGAUUUGUCCCUUGGCAGCUGUGGUAAAGUGAUGCAUUGCUCCUAG [Exclusion - Theophylline A (Freestyle 4)],0.0333
11,AUAAUAGGGAUAAUUAGUUUUAGGUCCAGUCGAGGACCGGUACGGCCGCCACUCGUACAGAAAUACAUGAGGAUCACCCAUGUUA [JR_SSTryptoA_Sub005],0.0161
12,UGGUGUAGGGUAAAUAGGCUGAGUACAGAAGGAGCGCGAAUAAACGCAGGUAGGUCGCUGGACUCCACAUGAGGAUCACCCAUGU [Same State Arginine A GF 28],0.0364
13,ACAUGAGGAUCACCCAUGUAUGAUGUUCCUCGAGGACCGGUACGGCCGCCACUCGAACGAGUGGCACGCGAGUGCGCACUCGCGU [aXa],0.0117
14,AGCCUCAUACAUGAGGAUCACCCAUGUGAUACCAGUCAGGAAACUGACCCUUGGCAGCGCAUGAGGAUCACCCAUGUGCGAGGCA [Omei Theo A Exc A v2],0.0329
15,UCACUCUGGGUGAAUUCCGGAGAUGUGGAAGGAGCGGACGAAAGUCCAGGUAGGUCGCCAUCGGACAUGAGGAUCACCCAUGUAC [Same State - Arginine A (Freestyle 23)],0.0685
16,AAUAAUAAGGCGGCCGCCACUAAACAUGAGGAUCACCCAUGUCUCGAGGGCUUGCGUUUGGGAAGUAGGACCGGGCCAAUAAUAA [Exclusion - Tryptophan B (Freestyle 6)],0.0164

row,Sequence,apparent KD of MS2 coat protein [µM]
1,UCCUACACGGAGACGUGUAGGAGUAAUGAUACCAGCAUGGAGACAUGCCCUUGGCAGCGUUACAUGAGGAUCACCCAUGUGGUGC [ETHA #7],0.0177
2,GAUGAACUAUUUGAUACCAGACUACAUGAGGAUCACCCAUGUGUGUUUAUACUUCUGUCAGUCCCUUGGCAGCAAAUAGUUUAUC [XTheo B #4],0.0404
3,AAAGGUCGGACGGCCGCCACUGGCUAGGUGGGUUCCGGGAUUACAUGAGGAUCACCCAUGUAUACCAGGACCGGGUUCGCCUCGU [Lageonor],0.0178
4,CUAUGCAGGUCGGCCGCCACUACACACAUGAGGAUCACCCAUGUAGUUACUGGGUGAAGUGGCAGUAGGACCGGGACCUGCACAC [Brourdmod18],0.431
5,UGUAACAUGAGGAUCACCCAUGUAAGUGAUACCAGAUAAGUAGUAGUCCCUUGGCAGCAUAUUGGGAAAGUGUAUAGUCUAUACG [Same State - Theophylline A (Freestyle 5)],0.0464
6,UUAAUCAUGUUAGAAAACUAAUAUGCAGAAGGAGCGUGAUAAAACACAGGUAGGUCGCUGAAGGGAACAUGAGGAUCACCCAUGU [AstrosSSArgA#9],0.0348
7,UACAAACAUGAGGAUCACCCAUGUAGUGAUACCAGCAUAACAGAUUGCCCUUGGCAGCACCGGUUUGUACUCAAACGAAGUACGG [theeternabot_sameState_MS2_Theo_A_36],0.0529
8,GAUGAACUAUGUGAUACCAGACAACAUGAGGAUCACCCAUGUGCGCGUCGUCCUCUGCCUGUCCCUUGGCAGCGUAUAGUUUAUC [XTheo B #13],0.0478
9,UAAAUAAUCUGGGUGUAGGUAAUAACAGAUACCAGCCAGAUAACUGGCCCUUGGCAGCUGAUAACAUGAGGAUCACCCAUGUAAA [Mat - Same State Theophlline A - Mod of Eli - D20],0.0556
10,AAAAUCCUACCUGAGGAUCACCCAGGUGAAGGAGCGCCCGAAAGGGCAGGUAGGUCGCACCUGAGGAUCACCCUGGUAACCUAAA [ArgEX 11 #DoubleMS2 #OpenEnded #AlternativeMS2],0.0386
11,ACAUGAGGAUCACCCAUGUAAAUAACGGAAGGAGCGUGCAAAAGCACAGGUAGGUCGCCGAUAUAAAUAUUGGGUAUUAUAUUAU [AstrosExyArgA#2],0.0285
12,CCGACGAUGACUAUGGGUCAGGAGUGCGCACGAGGACCGGUACGGCCGCCACUCGAGGAGUGGGACAUGAGGAUCACCCAUGUGG [X-TryptA-MS2@65],0.0336
13,UGAGUUAGACAAAAGUCUAGCUCUGGUGAAGGAGCGUCCGAAAGGACAGGUAGGUCGCACCACCUGAGGAUCACCCAGGUUCCUA [ArgAS 14 #OpenEnded #AlternativeMS2],0.0389
14,UAUAAAAUAACAGAUACCAGCGUGUUAUAAAACAUGAGGAUCACCCAUGUAGUGAUCAAGCGCCCUUGGCAGCUGGUAUUUUAUA [7.B],0.142
15,AUAAGUAAUGUUUCGUGUAUUAUUACAGAUACCAGACUAUCCUAUGUCCCUUGGCAGCUGGAUUACAUGAGGAUCACCCAUGUUG [JR_ExcTheophyA_Sub001],0.0171
